One experiment deals with T1, Human TGFβ1 protein (human, UniProt P01137 279-390).
T1 construct: also called TGFβ1 protein (Sino, 10804-HNAC); Novoprotein Inc., Cat #CA59
Kind of experiment: ELISA, human TGFβ1 coated at 10 ng/well, detection with HRP goat anti-human Fc, OD450-620 [left panel]. The method, then: (§1) The plates were then blocked by incubation with 1% BSA in PBS for one hour at 37° C. After blocking, the plates were washed three times with PBST (PBS containing 0.05% Tween 20). […] After binding, the plates were washed three times with PBST, incubated for one hour at 37° C. with peroxidase-labeled Goat anti-human Fc antibody (Jackson Immuno Research, Cat #109-035-098) diluted 1/20,000 in binding buffer, washed again, developed with TMB (ThermoFisher Cat #34028) for 15 minutes, and then stopped with 1M H₂SO₄. The absorbance at 450 nm-620 nm was determined.
On the technique in general: ELISA stands for enzyme-linked immunosorbent assay.

The target of experiment [1] is T2, Human PD-1 protein (ACRObiosystems, Cat #PD1-H5221) (human, UniProt Q15116 25-167).
T2 construct: Bought soluble protein
Kind of experiment: ELISA, human PD-1 coated at 25 ng/well, detection with HRP goat anti-human F(ab')2, OD450-620 [left panel]. The method, then: (§2) An ELISA assay was performed for determination of the relative binding capacity of the fusion proteins to human PD-1.
as §1, with “Human PD-1 protein (ACRObiosystems, Cat #PD1-H5221) was immobilized onto 96-well plates in PBS (Hyclone, Cat #SH30256.01) by incubation overnight at 4° C., 25 ng/well. The” for “The”, “F(ab′)²” for “Fc”, “#109-035-097)” for “#109-035-098)”, “(ThermoFisher,” for “(ThermoFisher”, “Each plate well contained 50 μL of solution” for “The absorbance”, “each step.” for “450 nm-620 nm was determined.”

Experiment [2] has as its target T2, Human PD-1 protein (ACRObiosystems, Cat …). Kind of experiment: ELISA, human PD-1 coated at 25 ng/well, detection with HRP goat anti-human F(ab')2, OD450-620 [right panel]. The method, then:
as §2
as §1, with “Human PD-1 protein (ACRObiosystems, Cat #PD1-H5221) was immobilized onto 96-well plates in PBS (Hyclone, Cat #SH30256.01) by incubation overnight at 4° C., 25 ng/well. The” for “The”, “F(ab′)²” for “Fc”, “#109-035-097)” for “#109-035-098)”, “(ThermoFisher,” for “(ThermoFisher”, “Each plate well contained 50 μL of solution” for “The absorbance”, “each step.” for “450 nm-620 nm was determined.”

What is called EC50 is the concentration giving half of the maximal effect. Low readings indicate an effect from little substance, high ones a need for much substance.

T2 sequence (Q15116 25-167 limits assumed): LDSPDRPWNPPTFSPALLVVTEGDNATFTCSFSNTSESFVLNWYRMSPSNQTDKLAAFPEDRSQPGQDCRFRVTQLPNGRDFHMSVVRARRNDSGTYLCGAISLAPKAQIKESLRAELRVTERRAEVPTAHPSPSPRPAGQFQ
T1 sequence (P01137 279-390 limits assumed): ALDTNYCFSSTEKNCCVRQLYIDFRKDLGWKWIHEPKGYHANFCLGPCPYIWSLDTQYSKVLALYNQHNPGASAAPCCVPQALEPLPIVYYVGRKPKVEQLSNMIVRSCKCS

B1: human TGFβR2-hFc (ACRObiosystems, Cat #TG2-H5252) (Fc fusion, UniProt P37173 23-159, looked up)
chain: TIPPHVQKSVNNDMIVTDNNGAVKFPQLCKFCDVRFSTCDNQKSCMSNCSITSICEKPQEVCVAVWRKNDENITLETVCHDPKLPYHDFILEDAASPKCIMKEKKKPGETFFMCSCSSDECNDNIIFSEEYNTSNPD
notes: Bought Fc fusion; also called positive control; not shown: human Fc of the bought fusion
Regarding B1, in the experiment with Human TGFβ1 protein, the 50% effective concentration (EC50) came out at 65.2 pM.

B2: anti-PD-1 antibody 21F12-1F6 (antibody, human IgG1, kappa, L234A L235A, V domains shown)
VH: QMQLVQSGAEVKKPGASVKLSCKASGYIFQSYYIHWVRQAPGQGLEWVGVINPSGGSTTYAQKFQGRVTMTRDTSISTAYMELSRLRSDDTVVYYCARGSYSSGWDYYYYYGMDVWGKGTLVTVSS
VL: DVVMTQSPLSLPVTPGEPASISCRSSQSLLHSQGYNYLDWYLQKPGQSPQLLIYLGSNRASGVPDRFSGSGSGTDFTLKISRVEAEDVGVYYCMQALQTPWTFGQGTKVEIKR
notes: Positive control in the PD-1 ELISA; also called anti-human PD-1; antibody 21F12-1F6 in PCT/CN2019/087287
On to B2, for which the 50% effective concentration (EC50) in experiment [1] turned out to be 95.7 pM; in experiment [2], 99.5 pM.

These data come from US20210115142A1 (NANJING LEADS BIOLABS, published 2021).
